{"source": "patent US20080176209", "tested_on": "TL-3", "data": [{"substance": "FIV protease (Feline Immunodeficiency Virus protease)", "values": [{"measurement": "enzymatic reaction activity in a kinetic FRET assay with a fluorogenic substrate peptide over a 20 minute time course", "value": "the enzymatic activity was blocked by TL-3"}]}]}
